Laboratory results taken from the Immune Epitope Database (IEDB).

Key:
HLA-A*23:01 = assay: IEDB peptide-MHC binding, purified MHC/competitive/radioactivity; filed as Kd, often an IC50 or EC50 that approximates it; ≥ and ≤ were set here for values at or beyond the usual limits of such assays
HLA-A*24:02 = assay: as above
HLA-A*29:02 = assay: as above
HLA-A*26:01 [1] = assay: as above
HLA-A*01:01 [2] = assay: as above
HLA-A*30:02 = assay: as above
HLA-A*32:01 = assay: as above
HLA-A*30:01 = assay: as above
HLA-B*35:01 = assay: as above
HLA-B*53:01 = assay: as above; conditions: source organism: Dengue virus 1 Singapore/S275/1990
HLA-B*51:01 = assay: as above
HLA-A*26:01 [3] = assay: IEDB peptide-MHC binding, purified MHC/direct/fluorescence; filed as Kd, often an IC50 or EC50 that approximates it; ≥ and ≤ were set here for values at or beyond the usual limits of such assays; conditions: source organism: West Nile virus
HLA-B*58:01 = assay: as above; conditions: source organism: SARS-CoV1
HLA-B*15:01 = assay: as above; conditions: source organism: SARS-CoV1
HLA-A*11:01 = assay: as above; conditions: source organism: SARS-CoV1
HLA-A*01:01 [4] = assay: as above; conditions: source organism: SARS-CoV1
[5] = source organism: SARS coronavirus Tor2
[6] = source organism: Mammarenavirus lassaense
[7] = source organism: Mammarenavirus guanaritoense
[8] = source organism: Dengue virus 1 Singapore/S275/1990
[9] = source organism: Mammarenavirus juninense
[10] = source organism: Mammarenavirus machupoense
[11] = source organism: Dengue virus 1 Brazil/97-11/1997
[12] = source organism: Dengue virus 4 Philippines/H241/1956
[13] = source organism: Dengue virus 3 Singapore/8120/1995

AYMLFTKFFY
Kd (HLA-A*23:01; [5]): 0.115 nM
Kd (HLA-A*24:02; [5]): 0.241 nM
Kd (HLA-A*29:02; [5]): 0.00115 nM
Kd (HLA-A*26:01 [1]; [5]): 83.5 nM
Kd (HLA-A*01:01 [2]; [5]): 339 nM

QYNLSHSYAV
Kd (HLA-A*23:01; [6]): 346 nM
Kd (HLA-A*24:02; [6]): 1950 nM
Kd (HLA-A*30:02; [6]): 3330 nM
Kd (HLA-A*29:02; [6]): 1300 nM
Kd (HLA-A*26:01 [1]; [6]): ≥ 69700 nM
Kd (HLA-A*01:01 [2]; [6]): ≥ 70400 nM

RVGLYGLLFY
Kd (HLA-A*30:02; [7]): 36.6 nM
Kd (HLA-A*32:01; [7]): 2340 nM
Kd (HLA-A*29:02; [7]): 48.4 nM
Kd (HLA-A*26:01 [1]; [7]): ≥ 69700 nM
Kd (HLA-A*01:01 [2]; [7]): 17400 nM
Kd (HLA-A*30:01; [7]): 4050 nM

MYLKLRSETL
Kd (HLA-A*23:01; [5]): 44.5 nM
Kd (HLA-A*24:02; [5]): 164 nM
Kd (HLA-A*30:02; [5]): 18200 nM
Kd (HLA-A*29:02; [5]): 17700 nM
Kd (HLA-A*26:01 [1]; [5]): 7590 nM
Kd (HLA-A*01:01 [2]; [5]): 7220 nM

LPVLLGSLGC
Kd (HLA-B*35:01; [8]): 2030 nM
Kd (HLA-B*53:01): 199 nM
Kd (HLA-B*51:01; [8]): ≥ 20100 nM

HLSRTVVYSY
Kd (HLA-A*30:02; [7]): 63.8 nM
Kd (HLA-A*32:01; [7]): 671 nM
Kd (HLA-A*29:02; [7]): 1210 nM
Kd (HLA-A*26:01 [1]; [7]): 10600 nM
Kd (HLA-A*01:01 [2]; [7]): 1330 nM
Kd (HLA-A*30:01; [7]): 525 nM

QWNLVIGFLF
Kd (HLA-A*23:01; [5]): 2.14 nM
Kd (HLA-A*24:02; [5]): 5.64 nM
Kd (HLA-A*30:02; [5]): ≥ 26300 nM
Kd (HLA-A*29:02; [5]): 39.5 nM
Kd (HLA-A*26:01 [1]; [5]): ≥ 69700 nM
Kd (HLA-A*01:01 [2]; [5]): ≥ 30600 nM

LYYPSARIVY
Kd (HLA-A*23:01; [5]): 1910 nM
Kd (HLA-A*24:02; [5]): 2020 nM
Kd (HLA-A*30:02; [5]): 71.8 nM
Kd (HLA-A*29:02; [5]): 14.6 nM
Kd (HLA-A*26:01 [1]; [5]): 7360 nM
Kd (HLA-A*01:01 [2]; [5]): ≥ 37800 nM

HTNEDDSNF
Kd (HLA-A*26:01 [3]): 1900 nM

VAHSSLYGRY
Kd (HLA-A*30:02; [9]): 5.86 nM
Kd (HLA-A*32:01; [9]): ≥ 69900 nM
Kd (HLA-A*29:02; [9]): 349 nM
Kd (HLA-A*26:01 [1]; [9]): 11700 nM
Kd (HLA-A*01:01 [2]; [9]): 5800 nM
Kd (HLA-A*30:01; [9]): 8960 nM

LWPFIRINNL
Kd (HLA-A*23:01; [7]): 117 nM
Kd (HLA-A*24:02; [7]): 453 nM
Kd (HLA-A*29:02; [7]): 1640 nM

LYLYALIYFL
Kd (HLA-A*23:01; [5]): 22 nM
Kd (HLA-A*24:02; [5]): 299 nM
Kd (HLA-A*30:02; [5]): 6960 nM
Kd (HLA-A*29:02; [5]): 3000 nM
Kd (HLA-A*26:01 [1]; [5]): 2460 nM
Kd (HLA-A*01:01 [2]; [5]): 4270 nM

DPRRCMKPVI
Kd (HLA-B*51:01; source organism: Dengue virus 2 Jamaica/1409/1983): 9650 nM

LSSSEPHCA
Kd (HLA-A*23:01; [10]): ≥ 60900 nM
Kd (HLA-A*24:02; [10]): ≥ 77500 nM
Kd (HLA-A*30:02; [10]): 2350 nM
Kd (HLA-A*29:02; [10]): ≥ 78900 nM
Kd (HLA-A*26:01 [1]; [10]): ≥ 77900 nM
Kd (HLA-A*01:01 [2]; [10]): 4190 nM

CKSKNPLLY
Kd (HLA-A*23:01; [5]): ≥ 67600 nM
Kd (HLA-A*24:02; [5]): ≥ 77600 nM
Kd (HLA-A*30:02; [5]): 199 nM
Kd (HLA-A*29:02; [5]): 163 nM
Kd (HLA-A*26:01 [1]; [5]): ≥ 81500 nM
Kd (HLA-A*01:01 [2]; [5]): ≥ 87700 nM

FKPGTSGSPI
Kd (HLA-B*51:01; [11]): 5750 nM

YAQMWSLMY
Kd (HLA-A*30:02; source organism: Dengue virus 3 Martinique/1243/1999): 8.8 nM

TQDLFLPFY
Kd (HLA-A*23:01; [5]): ≥ 67400 nM
Kd (HLA-A*24:02; [5]): ≥ 77600 nM
Kd (HLA-A*30:02; [5]): 5.13 nM
Kd (HLA-A*29:02; [5]): 426 nM
Kd (HLA-A*26:01 [1]; [5]): 16800 nM
Kd (HLA-B*58:01): ≥ 31500 nM
Kd (HLA-B*15:01): 1710 nM
Kd (HLA-A*11:01): 424 nM
Kd (HLA-A*01:01 [4]): 1810 nM

LPLPWAAGAD
Kd (HLA-B*35:01; [12]): 4140 nM
Kd (HLA-B*51:01; [12]): ≥ 22900 nM

LWMADVPLQW
Kd (HLA-A*23:01; [13]): 39.7 nM
Kd (HLA-A*24:02; [13]): 24.3 nM

AWNIWEVEDY
Kd (HLA-A*30:02; [11]): 1880 nM

SYEHQTPFEI
Kd (HLA-A*23:01; [5]): 945 nM
Kd (HLA-A*24:02; [5]): 1240 nM
Kd (HLA-A*30:02; [5]): 7060 nM
Kd (HLA-A*29:02; [5]): 7160 nM
Kd (HLA-A*26:01 [1]; [5]): 10400 nM
Kd (HLA-A*01:01 [2]; [5]): 3680 nM

GEKSRCYSIY
Kd (HLA-A*23:01; [9]): ≥ 70000 nM
Kd (HLA-A*24:02; [9]): ≥ 70300 nM
Kd (HLA-A*30:02; [9]): 3160 nM
Kd (HLA-A*32:01; [9]): ≥ 69900 nM
Kd (HLA-A*29:02; [9]): ≥ 51800 nM
Kd (HLA-A*26:01 [1]; [9]): 18000 nM
Kd (HLA-A*01:01 [2]; [9]): 13900 nM
Kd (HLA-A*30:01; [9]): 2190 nM
